The nature of series [1]: Thermal behavior by optical turbidimetry and dynamic light scattering. The class given is physicochemical. Particulars: 100 μM in buffer. On the procedure:
We confirmed the purity and molecular weight of the purified peptides by electrophoresis (10-20% gradient […] SDS-PAGE, Thermo Scientific, CA) and by matrix-assisted laser desorption/ionization mass spectrometry. Mass spectrometry samples were prepared by mixing the enzymatic reaction product with sinapinic acid in 1:10 ratio. 1 μL of the sample/matrix mixture was then loaded on the grid and the measurements were performed on a Voyager-DE-Pro instrument (Applied Biosystems, Germany). To determine the concentration of the ELP-substrate fusion solutions we used a calculated extinction coefficient (Gill, S. C. & Vonhippel, P. H. Analytical Biochemistry 1989, 182, 319-326) or lyophilized the polypeptide solution. We studied the thermal behavior of the ELP-substrate fusion constructs in both proteolysis buffer (see below) and diluted human serum in the presence and absence of MMP-1 using optical turbidimetry on a temperature-programmed UV-vis spectrometer (Cary 300, Agilent Technologies). To characterize the size of the micelles and aggregates, we used single angle dynamic light scattering (DLS; DynaPro, Protein Solution).
FIG. 2 presents optical densities at 350 nm (OD350) and hydrodynamic diameters of ELP-substrate fusion as a function of temperature prior to, and after, enzymatic reaction. […] These changes are consistent with the self-assembly of ELP-substrate fusions (unimers) into micelles as the temperature is raised above the CMT (Ghoorchian, A. et al., The Journal of Physical Chemistry. B 2013, 117, 8865-8874). We note that there is a slight local maximum in both the optical density and hydrodynamic diameter at temperatures slightly above the CMT, which has been observed previously (Hassouneh, W., Duke University, PhD thesis, 2013); the origin of this small peak is, as yet, unclear.

Series [2] deals with T1, MMP-1 (Homo sapiens, UniProt P03956).
T1 construct: Human MMP-1 catalytic domain (recombinant, produced in E. coli, 19.9 kDa, >95% purity); purchased Enzo Life Sciences (Farmingdale, N.Y.); host or cells: E. coli
T1 sequence (P03956 100-269 limits assumed): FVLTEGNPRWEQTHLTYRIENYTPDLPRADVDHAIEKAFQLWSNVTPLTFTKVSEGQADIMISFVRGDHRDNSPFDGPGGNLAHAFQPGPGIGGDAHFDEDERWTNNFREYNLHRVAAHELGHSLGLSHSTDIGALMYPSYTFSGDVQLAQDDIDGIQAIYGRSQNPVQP
In words: Kinetic study of MMP-1 cleavage (SDS-PAGE, Lineweaver-Burke plot). Particulars: substrate 25, 50, 100, 200 μM, enzyme 20 ng/mL, buffer, 40° C. It is filed as biochemical. On the procedure:
We used mass spectrometry to examine the cleavage of the MMP-1 substrate peptide in the ELP-substrate fusion by measuring the molecular weight of the polypeptides prior to, and after incubation with MMP-1. We incubated 0.5 mL of 100 μM polypeptide in proteolysis buffer with 100 ng/mL of MMP-1 for 2 h at 25° C. […] For example, an enzymatic reaction can be written in general form as:
In which V0 is the initial rate of the enzymatic reaction at a given substrate concentration. Using equation Eq. 4, we can calculate Vmax by plotting 1/V0 versus 1/[S] at different substrate concentrations and a constant enzyme concentration and then calculate kcat by implementing equation Eq. 3.
We performed a series of kinetic studies in which the concentration of the substrate in the buffer solution was chosen to be 25, 50, 100, and 200 μM. We then added 20 ng/mL of enzyme to each of the solutions and kept all the solutions at a constant temperature (40′C). […] We quantified these changes by image analysis (ImageJ software) and used them to quantify the amount of product for each substrate concentration at each sampling time. We then calculated the initial rate of the reaction (V0) by using the concentration of the converted substrate and the time of reaction.
We then used equation Eq. 4 and plotted 1/[S] versus 1/[V0] […] From Vmax and equation Eq. 3, we calculated kcat to be equal to 8.0±1.9 s^−1. […]

Where [3] appears, read: DLS, prior to enzymatic reaction.

Where “and” joins values, the source holds several entries; their conditions need not be identical. Identical values can stand only once. A value given as a limit tells only on which side of the number the result lay.

Regarding “M(GVGVP)60GDGQVPMSMRGGDDEGQQDDEEGY (MGVGVPGDGQVPMSMRGGDDEGQQDDEEGY) [ELP-substrate fusion, recombinant polypeptide: ELP fused to MMP-1 substrate and charged hydrophilic peptide]”, in series [1] (prior to enzymatic reaction), the “critical micellization temperature (CMT)” value is “≈ 38 °C and 38 °C”. Further, in series [1] (setting [3]), the “hydrodynamic diameter above Tt” value is “≈ 50 nm” and the “hydrodynamic diameter below the CMT” value is recorded as less than 10 nm. Besides, the “increase of OD350 as the solution is heated through the CMT” value in series [1] (before enzymatic reaction) is “about 0.2 OD units”. Moreover, the kcat – broadly, the maximal rate divided by the concentration of active sites – in series [2] amounted to 8.0 ± 1.9 s⁻¹.

For the origin of these results see US20160348147A1, “SYSTEMS AND DEVICES FOR PROTEASE DETECTION BASED ON ENGINEERED POLYMERS AND BIOPOLYMERS AND METHODS OF USE” (DUKE UNIVERSITY, priority 2014, published 2016).
